The test deals with methemoglobin (UniProt P69905). The experiment in a line: ELISA. For orientation: In an ELISA, binding on a coated surface is turned into a signal by an enzyme label.

The term EC50 denotes the concentration that produces a half-maximal response. Read a high EC50 as a need for much substance.

“purified ShuA H86A/H420A (non-phage-displayed) (natural protein)” gave a concentration for a half-maximal effect (EC50) of 6900 nM.

“purified ShuA Ala-L11 (non-phage-displayed) (from UniProt P72412 1-660) (natural protein)” yielded an EC50 of 530 nM.

Take “DEPC-treated wild-type ShuA further treated with hydroxylamine (from UniProt P72412 1-660) (natural protein)”: the percent loss of hemoglobin binding against the untreated sample came out at 40%.

“DEPC-treated wild-type ShuA (from UniProt P72412 1-660) (natural protein)” had a percent loss of hemoglobin binding against the untreated sample of 60%.

The substance “purified wild-type ShuA (non-phage-displayed) (from UniProt P72412) (natural protein; other documents disagree on this pair)” gave an EC50 of 530 nM.
